Source: PMC6994669
pKd: −log10 of the molar value.

Biological target: PTPδ D2-His6 F1503A (mouse)
Assay: SPR; Biacore T200, 25 °C, 10 mM Hepes-NaOH pH 7.5, 150 mM NaCl, 0.005% Tween-20; wild-type or mutant PTPδ D2-His6 amine-coupled on a CM5 chip; wild-type or mutant Liprin-α3 tSAM injected, twofold dilutions from 40 µM to 39 nM; equilibrium KD

mouse Liprin-α3 tSAM (residues 808–1114), sequence (P60469 808-1114): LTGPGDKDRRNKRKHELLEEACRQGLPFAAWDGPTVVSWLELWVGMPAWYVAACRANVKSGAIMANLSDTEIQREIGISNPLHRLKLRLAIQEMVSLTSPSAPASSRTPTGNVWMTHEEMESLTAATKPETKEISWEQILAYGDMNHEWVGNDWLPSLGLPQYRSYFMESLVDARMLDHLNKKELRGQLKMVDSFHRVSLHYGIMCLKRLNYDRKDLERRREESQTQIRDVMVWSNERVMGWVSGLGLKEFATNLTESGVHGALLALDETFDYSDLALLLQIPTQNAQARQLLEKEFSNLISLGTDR

- pKd: 5.08
Substance: mouse Liprin-α3 tSAM (residues 808–1114) (from UniProt P60469 808-1114) (domain or fragment)
